Measured values reported in article PMC1874611 (Nucleic Acids Research, 2007).

B1: CycT1-binding domain of HEXIM1 (HEXIM1-TBD; aa 255–359) (domain or fragment)
chain: MGGDGSEFLQRDFSETYERYHTESLQNMSKQELIKEYLELEKCLSRMEDENNRLRLESKRLGGDDARVRELELELDRLRAENLQLLTENELHRQQERAPLSKFGD
B2: fluorescently labeled HEXIM1-TBD (HEXIM1-TBD*) (domain or fragment)
chain: B1 chain
modifications: dansyl-based fluorophore (position not given)

Legend:
[1] = target: T1, chimeric GST-CycT1 (GST-T1; aa 1–292) (UniProt O60563 1-292); experiment: pull-down
[2] = target: T1, chimeric GST-CycT1 (GST-T1; aa 1–292); experiment: stopped-flow fluorescence

T1 sequence (O60563 1-292, change not shown): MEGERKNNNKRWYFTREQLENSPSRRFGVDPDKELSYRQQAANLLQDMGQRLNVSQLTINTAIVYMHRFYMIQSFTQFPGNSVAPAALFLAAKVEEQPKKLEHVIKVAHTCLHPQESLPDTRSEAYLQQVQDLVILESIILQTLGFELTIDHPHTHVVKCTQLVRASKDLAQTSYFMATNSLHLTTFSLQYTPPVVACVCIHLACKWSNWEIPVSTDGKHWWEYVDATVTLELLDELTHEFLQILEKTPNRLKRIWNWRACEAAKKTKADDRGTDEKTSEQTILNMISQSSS

Row | binding result [1] | binding result [2] | Binder
1 | binds |  | B1
2 |  | binds | B2
